These results are taken from article PMC8980629, “c-Abl kinase-mediated phosphorylation of γ-tubulin promotes γ-tubulin ring complexes assembly and microtubule nucleation” (The Journal of Biological Chemistry, 2022).

In this experiment the target is T1, Flag-γ-tubulin (human, UniProt P23258 1-451).
T1 construct: γ-tubulin (tubg1), full-length cDNA amplified from an MCF-7 cDNA library, in a pcDNA3.0-based vector; also called wild-type Flag-γ-tubulin; source: HEK293T, transfected, in lysate; anti-Flag immunoprecipitated and resolved by SDS-PAGE for the far-Western; not shown: Flag, N-terminal, kept
Briefly: far-Western, overlay or dot blot; anti-Flag immunoprecipitates from HEK293T resolved by SDS-PAGE and blotted onto PVDF; membrane incubated with purified GST or GST fusion protein 2 h at room temperature; probed with anti-GST. Conditions: both partners purified.

T1 sequence (P23258 whole entry): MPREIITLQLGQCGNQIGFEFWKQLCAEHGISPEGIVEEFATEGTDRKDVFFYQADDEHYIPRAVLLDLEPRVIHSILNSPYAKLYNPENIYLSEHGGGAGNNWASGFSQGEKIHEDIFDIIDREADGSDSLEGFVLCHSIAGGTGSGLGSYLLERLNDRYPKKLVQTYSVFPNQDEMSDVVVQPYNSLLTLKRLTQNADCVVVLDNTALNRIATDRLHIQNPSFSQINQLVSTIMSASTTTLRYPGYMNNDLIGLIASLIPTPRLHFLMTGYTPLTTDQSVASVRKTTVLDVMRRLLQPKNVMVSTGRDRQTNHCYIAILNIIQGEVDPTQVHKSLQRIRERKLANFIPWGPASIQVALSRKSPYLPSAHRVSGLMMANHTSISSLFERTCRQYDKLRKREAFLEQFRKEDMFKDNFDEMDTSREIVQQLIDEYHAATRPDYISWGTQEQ

B1: GST-c-Abl SH2 (domain or fragment, UniProt P00519 127-217, looked up)
chain: WYHGPVSRNAAEYLLSSGINGSFLVRESESSPGQRSISLRYEGRVYHYRINTASDGKLYVSSESRFNTLAELVHHHSTVADGLITTLHYPA
notes: SH2 domain of c-Abl; source: purified GST fusion protein; not shown: GST, N-terminal, kept
Regarding B1, the binding result is recorded as “binds”.
